Measurements published in article PMC12209930, “A TATA-box-binding protein binds single-stranded DNA in two modes: To poly(G) tracts and to flexible DNA regions”.

How the values were obtained:
gTBP (GST-gTBP) [1] = biological target: T1, gTBP (GST-gTBP) (Giardia intestinalis WB C6 (ATCC 50803), UniProt E2RU70 1-200); assay: competition; vs H2B-a probe; better than L; 10 mM Tris-HCl pH 8.0, 0.15 M NaCl, 0.5 mM TCEP, 5% glycerol, 1 ug/ul BSA, 15 ng/ul salmon sperm DNA, 30 min on ice; probe 0.1 pmol/ul, competitor 200-fold excess; settings: protein: recombinant; tags: N-terminal GST
T1 sequence: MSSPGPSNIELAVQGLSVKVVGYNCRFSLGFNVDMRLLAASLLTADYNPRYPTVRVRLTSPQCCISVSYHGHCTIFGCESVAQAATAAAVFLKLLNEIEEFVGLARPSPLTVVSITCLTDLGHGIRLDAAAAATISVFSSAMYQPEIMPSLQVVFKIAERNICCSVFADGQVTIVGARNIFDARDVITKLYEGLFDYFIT

gTBP (GST-gTBP) [2] = biological target: T1, gTBP (GST-gTBP); assay: competition; vs H4-b probe; 10 mM Tris-HCl pH 8.0, 0.15 M NaCl, 0.5 mM TCEP, 5% glycerol, 1 ug/ul BSA, 15 ng/ul salmon sperm DNA, 30 min on ice; probe 0.1 pmol/ul, competitor 200-fold excess; settings: protein: recombinant; tags: N-terminal GST
gTBP (GST-gTBP) [3] = biological target: T1, gTBP (GST-gTBP); assay: competition; vs H4-b and H2B-b probes; 10 mM Tris-HCl pH 8.0, 0.15 M NaCl, 0.5 mM TCEP, 5% glycerol, 1 ug/ul BSA, 15 ng/ul salmon sperm DNA, 30 min on ice; probe 0.1 pmol/ul, competitor 200-fold excess; settings: protein: recombinant; tags: N-terminal GST
gTBP (GST-gTBP) [4] = biological target: T1, gTBP (GST-gTBP); assay: competition; vs H2B-a probe; 10 mM Tris-HCl pH 8.0, 0.15 M NaCl, 0.5 mM TCEP, 5% glycerol, 1 ug/ul BSA, 15 ng/ul salmon sperm DNA, 30 min on ice; probe 0.1 pmol/ul, competitor 200-fold excess; settings: protein: recombinant; tags: N-terminal GST
gTBP (GST-gTBP) [5] = biological target: T1, gTBP (GST-gTBP); assay: EMSA; A complex; total binding, Hill fit; 10 mM Tris-HCl pH 8.0, 0.15 M NaCl, 0.5 mM TCEP, 5% glycerol, 1 ug/ul BSA, 15 ng/ul salmon sperm DNA, 30 min on ice; probe 0.1 pmol/ul, competitor 200-fold excess; settings: protein: recombinant; tags: N-terminal GST; label: 5'Cy5
gTBP (GST-gTBP) [6] = biological target: T1, gTBP (GST-gTBP); assay: competition; vs H2B-b probe; less well than H2B S1; 10 mM Tris-HCl pH 8.0, 0.15 M NaCl, 0.5 mM TCEP, 5% glycerol, 1 ug/ul BSA, 15 ng/ul salmon sperm DNA, 30 min on ice; probe 0.1 pmol/ul, competitor 200-fold excess; settings: protein: recombinant; tags: N-terminal GST
gTBP (GST-gTBP) [7] = biological target: T1, gTBP (GST-gTBP); assay: EMSA; B1+B2 complexes; Hill n about 2; 10 mM Tris-HCl pH 8.0, 0.15 M NaCl, 0.5 mM TCEP, 5% glycerol, 1 ug/ul BSA, 15 ng/ul salmon sperm DNA, 30 min on ice; probe 0.1 pmol/ul, competitor 200-fold excess; settings: protein: recombinant; tags: N-terminal GST; label: 5'Cy5 (probe)
gTBP (GST-gTBP) [8] = biological target: T1, gTBP (GST-gTBP); assay: competition; vs H2B-b probe; 10 mM Tris-HCl pH 8.0, 0.15 M NaCl, 0.5 mM TCEP, 5% glycerol, 1 ug/ul BSA, 15 ng/ul salmon sperm DNA, 30 min on ice; probe 0.1 pmol/ul, competitor 200-fold excess; settings: protein: recombinant; tags: N-terminal GST
gTBP (GST-gTBP) [9] = biological target: T1, gTBP (GST-gTBP); assay: competition; vs H2B-a and H4-a; annealed in Na+ and K+; 10 mM Tris-HCl pH 8.0, 0.15 M NaCl, 0.5 mM TCEP, 5% glycerol, 1 ug/ul BSA, 15 ng/ul salmon sperm DNA, 30 min on ice; probe 0.1 pmol/ul, competitor 200-fold excess; settings: protein: recombinant; tags: N-terminal GST

Binder: TAGAAGTGCACAGGGGGGCAGATTTCGGCTGC (ssDNA) [H2B-a L1]
- binding result (gTBP (GST-gTBP) [1]): binds

Binder: CCTTCCCGCGTCTTCTTTTTTAGCCCAA (ssDNA) [H4 C]
- binding result (gTBP (GST-gTBP) [2]): binds

Binder: AAAAAAAAAAAAAAAAAAAAAAAAAAAAAA (ssDNA) [dn 1]
- binding result (gTBP (GST-gTBP) [3]): no binding

Binder: CTGCGGTTGGGGGGTTTTAGCGGGCGGGAAAGAAAT (ssDNA) [H2B-a R3]
- binding result (gTBP (GST-gTBP) [4]): binds

Binder: CTTTTTTAGCCCAAATCTGCGCCCTAC (ssDNA) [H4 R]
- binding result (gTBP (GST-gTBP) [2]): binds

B1: H4-a (ssDNA)
DNA: GTAGGGCGCAGATTTGGGCTAAAAAAGAAGACGCGGGAAGGGGCAAATAAAAATG
- Kd (gTBP (GST-gTBP) [5]): 0.5 mM

Binder: CATTTTTATTTGCCCCTTCCCGCGTCTT (ssDNA) [H4 L]
- binding result (gTBP (GST-gTBP) [2]): binds

B2: H4 S2 (ssDNA)
DNA: TACCTCACCTGCTTCTTCTTCGCGTTCCCTCCTCCAGCCCAAACTTGCGCCTCAT
- binding result (gTBP (GST-gTBP) [2]): binds

B3: H2B S2 (ssDNA)
DNA: CACCTTCTCAGCGACGCTTCCTCTTTCCCTAGCGACGTGTAACCACGCGATTTGTGCCATC
- binding result (gTBP (GST-gTBP) [6]): binds

B4: H4 S1 (ssDNA)
DNA: ACACCCACCTGCTTCCTCTGCGCCCTTTCCCTCCAGCTTAGACCATCGCGTTCAT
- binding result (gTBP (GST-gTBP) [2]): binds

Binder: CTGCGGAAGGGGGGAAAAAGCGGGCGGGAAAGAAAT (ssDNA) [H2B-a Right (R)]
- binding result (gTBP (GST-gTBP) [1]): binds

B5: H2B-a (ssDNA)
DNA: TAGAAGTGCACAGGGGCGCAGATTTCGGCTGCGGAAGGGGGGAAAAAGCGGGCGGGAAAGAAAT
- Kd (gTBP (GST-gTBP) [5]): 7.2 mM

B6: H4-b (ssDNA)
DNA: CATTTTTATTTGCCCCTTCCCGCGTCTTCTTTTTTAGCCCAAATCTGCGCCCTAC
- Kd (gTBP (GST-gTBP) [7]): 7 µM

Binder: ATTTCTTTCCCGCCCGCTTTTTCCCCCCTT (ssDNA) [H2B L]
- binding result (gTBP (GST-gTBP) [8]): binds

Binder: AAAATTATACCTATGCCGCCGCACTCAAAA (ssDNA) [dn 14]
- binding result (gTBP (GST-gTBP) [3]): binds

Binder: GGGTTAGGGTTAGGGTTAGGGT (structured_DNA) [Human-1 telomere (Hu1)]
- binding result (gTBP (GST-gTBP) [9]): binds

Binder: AAAACTCCTCCCTTCCCTTTCTTCCCAAAA (ssDNA) [dn 13]
- binding result (gTBP (GST-gTBP) [3]): binds

Binder: AAAAATTATACCTATGCCGCACTCAAAAAA (ssDNA) [dn 15]
- binding result (gTBP (GST-gTBP) [3]): binds

Binder: AAAACTCCTCCCTTGCCGCCGTTCCCAAAA (ssDNA) [dn 8]
- binding result (gTBP (GST-gTBP) [3]): binds

Binder: TAGGGTAGGGTAGGGTAGGG (structured_DNA) [Giardia telomere (Gia)]
- binding result (gTBP (GST-gTBP) [9]): binds

B7: H2B-b (ssDNA)
DNA: ATTTCTTTCCCGCCCGCTTTTTCCCCCCTTCCGCAGCCGAAATCTGCGCCCCTGTGCACTTCTA
- Kd (gTBP (GST-gTBP) [7]): 5 µM

Binder: AAAACTCCTCCCTTCCCGTTCTTCCCAAAA (ssDNA) [dn 12]
- binding result (gTBP (GST-gTBP) [3]): binds

B8: aGN-a (ssDNA)
DNA: CAATTTGAGCTTCAAAAAATACCGCCAAAAAATGGCAATTCGGTTTTAAAAATG
- binding result (gTBP (GST-gTBP) [8]): no binding

Binder: TTTTTTTTTTTTTTTTTTTTTTTTTTTTTT (ssDNA) [polyT(30)]
- binding result (gTBP (GST-gTBP) [3]): binds

B9: H2B S1 (ssDNA)
DNA: ACCCCTCCTTCGCTCGCTCCTTCCTTTCTCCCGCAGCCGAGACTTGCGCTTTACGTGATCC
- binding result (gTBP (GST-gTBP) [8]): binds

Binder: AAAAAAAAAAAAAAAAAAAAAAAAAAAAAA (ssDNA) [polyA(30)]
- binding result (gTBP (GST-gTBP) [3]): no binding

Binder: GGGGTTTTGGGGTTTTGGGGTTTTGGGG (structured_DNA) [Oxytricha telomere (Oxy)]
- binding result (gTBP (GST-gTBP) [9]): binds
